Data on 40 sequences can be found in the nanobody polyreactivity screen of Harvey et al. (2022).

A short description of the series: yeast display, Sf9 membrane polyspecificity reagent, FACS + sequencing; frameworks hold sequencing errors. Put shortly:
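In a synthetic yeast display library (Saccharomyces cerevisiae BJ5465), nanobody expression was induced with galactose for 36–48 hours. FACS gates were set low and high (top ~1%) using anti-HA fluorescence for expression and streptavidin fluorescence for binding of the Sf9 membrane reagent. Each polyreactivity label is drawn from the gate of origin.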
For “QVQLVESGGGLVQAGGSLRLSCAASGRTFHNYAMGWYRQAPGKEREFVAVITGSGGRTYYADSVKGRFTISRDNAKNTVYLQMNSLKPEDTAVYYCNRVSRYYLYDYWGQGTQVTVSS”, the “polyreactivity (PSR sort gate)” value was “high polyreactivity”.
The value for “QVQLVESGGGLVQAGGSLRLSCAASGSTFGANAMGWYRQARGKEREFVAAISRSGVRTYYADSVKGRFTISRDNAKNTVYLQMNSLKPEDTAVYYCAADGYWWTYTRYDYCGQGTQVTVSS” was “low polyreactivity”; that for “QVQLVESGGGLVQAGGSLRLSCAASGSIFNRYTMGWYRQAPGKERELVAAISKRGGSTYYADSVKGRFTISRDNAKNTVYLQMNSLKPEDTAVYYCAAAGYHSGKGGGYWGQGTQVTVSS” was “high polyreactivity”.
On to “QVQLVESGGGLVQAGGSLRLTCAASGFIFVTDAMGWYRQAPGKERELVAAITNSGGTTYYADSVKGRFTISRDNAKNTVYLQMNSLKPEDPAVYYCNKQWYTATYRESYYWGQGTQVTVSS”, for which the “polyreactivity (PSR sort gate)” value was “low polyreactivity”.
With “QVQLEESGGGLVQAGGSLRLSCAASGRPCWLMLWDGIDRRLGKKGSWLPLTASTYYADSVKGRFTISRDNAKNTVYLQMNSLKPEDTAVYYCAADLYYGDYRTLPIADEYDYWGQGTQVTVSS”, the “polyreactivity (PSR sort gate)” value is “low polyreactivity”.
As to “QVQRVESGGGLVQAGGSLRLSCAASGFTFSLYGMGWYRPARGKGRELVAAIRSGGSTNYADSVKGRYTISRDNAKNTVYLQMNSLKPEDTAVYYCATDIHSGHNNRDKHDYDYWGQGTQETVSS”, the “polyreactivity (PSR sort gate)” value is recorded as “low polyreactivity”.
Then “QVQLVESGGGLVQAGGSLRLSCAASGLIFVRYAMGWYRQAPGKERELVAAISRGGTTYYADSVKGRFTISRDNAKNTVYLQMNSLKPEDTAVYYCAVGIRYSKDYYYWGQGTQVTVSS”, with “high polyreactivity”; and “QVQLVESGGGLVQAGGSLRLSCAASGRTFYEYAMGWYRQAPGKERELVAAITRSGGSTYYADSVKGRFTISRDNAKNTVYLQMNSLKPEDTAVYYCAAYRLQYRVRYYTAYDYWGQGTQVTVSS”, with “high polyreactivity”; and “QVQLVESGGGLVQAGGSLRLSCAASGSTFLPYGMGWYRQAPGKERELVAAITQRGGSTYYADSVKGRFTISRDNAKNTVYLQMNSLKPEDTAVYYCAARYTGRRRLWTGPGYEYWGQGTQVTVSS”, with “high polyreactivity”.
Then “HVQLVESGGGLVQAGGSLRLICAASGFIFRFNAMGWYRQAPGKERELVAAISGSGGITYYADSVKGRFTISRDNAKNTVYLQMNSLKPEDTAVYYCAARPLFGWRGYNYWGQGTQVTVSS”, with “high polyreactivity”; and “QVKLVESGGCLVKAGGSLRLSCAATGRIFLYYAMGWYRQAPGKEMELVATITSGGRTNYADSVKGRFTISRDNAKNTVYLQMNSLKPVDTAVYNCARQSYGSYRRYGFSALYGYLGQGTQVTVSS”, with “high polyreactivity”; and “QVQLVESGGGLVQAGGSLRLSCAASGSIFISYNMGWYGQAPGKERELVAANNYNGGRTNYADSVKGRFTISRDKAKNTVYLQINSLKPEDTAVYYCNAAYSYSIYDYWGQGTQVTVSS”, with “low polyreactivity”.
Then “QVQLLESGGGLGQAGGRLRLICAASGRTFTPYAMGWYRPAPGKERELVAAIDTSGGSTYADSVKGRFTISRDNAKNTVYLQMNCQKPEDTAVYYCATRGFYSWDYWYLWEYDYWGQGTQVTVSS”, with “low polyreactivity”.
Regarding “QFQLVESGGGLVQAGGSLRLSCAASGFTFAVYAMGWYRQAPWKERELVAAISRSGTRTYYADSVKGRFTISRDNAKNTVYLQMNSLKPVDTAVYYCAADKYRHGYDYWGQGTQVTVSS”, the “polyreactivity (PSR sort gate)” value was “low polyreactivity”.
As for “QVQLVESGGGLVQAGGSLRLSCAASGSTIYHNAMGWYRQAPGKERELVAAISSGGSTHYADSVKGRFTISRDNAKNTVYLQMNSLKPEDTAVYYCATYSSVRQLLWGNGYWGQGTQVTVSS”, the “polyreactivity (PSR sort gate)” value is “high polyreactivity”.
The value for “QVQLVESGGGLVQAGGSLRLSCAASGRTFRGYAMGWYRQAPGKERELVAAITWSGGRTYYADSVKGRFTISRDNAKNTVYLQMNSLKPEDTAVYYCATSPGRWGWGYDYEYWGQGTQVTVSS” was “low polyreactivity”; that for “QVQLVESGGGLGQAGGSLRLSCAASGIIFWLYAMGWYRQAPGKDRELVAAITRSDGDTYYADSVKGRFTISRDNAKNTVYLQMNSLKPEDTAVYYCAARFTDYIHIWPFLLYNEVYYWGQGTQVTVSS” was “low polyreactivity”.
Then “QVQLVESGGGLVQAGVSLRLSCAASGTTFGLNPMGWYRQAPGKERELVAAISTSGGSTYYADSVKGRFTISRDNAKNSVYLQMISLKPEDTAVYYCAAEVDAGYDYSQYYYWGQGTQVTVSS”, with “low polyreactivity”.
For “QVQLVESGGGLVQAGGSLRLSCAASGSIFGFYAMGWYRQAPGKERELVAAITFSGGSTDYADSVKGRFTISRDNAKNTVYLQMNSLKPEDTAVYYCAARGYAIYSYWYYEPYDYWGQGTQVTVSS”, the “polyreactivity (PSR sort gate)” value is recorded as “high polyreactivity”.
The value for “QVQLVESGGGLVQAGGSLRLSCAASGFTLYPYAMGRYRKAPGKERELVAAISSSSGSTYYADSVKGRFTISRDNAKNTVYVQMNSLKPDDTAVYYCARDSGYYWYYRYGYWGQGTQVTVSS” was “high polyreactivity”.
The value for “QVHLVESGGGLVQAGGSLRLTSAASGRIFGRNAMGWYRQAPGKEREFVAAISRSGASRYYADSVKGRFTISRDNAKNTVYLQMNRLKPEDTAVYYCARTTRQSSAYTYSDEYDYWGQGTQVTVSS” was “high polyreactivity”; that for “QVQLVESGGGFVQAGGSLRLSCAASGSTFRFYAMGWYRQAPGKERELVAAINGSGGSTYYADSVKGRFTISRDNAKNTVYLQMNSLKPEDTAVYYCAAESNTGPGEDYWGQGTQVTVSS” was “low polyreactivity”.
As to “QVQLVESGGGLVQAGGSLRLSCAASGITFWAYAMGWYRQAPGKERELVASISSGGSTYYADSVKGRFTISRDNAKNTVYLQMNSLKPEDTAVYYCAATTLRWYGDTFNYWGQGTQVTVSS”, the “polyreactivity (PSR sort gate)” value is on record as “high polyreactivity”.
Consider “QVQLVESGGGLVQAGGSLRLSCAASGYIFTDYDMGWYRPAPGKEREFVAAISSSGGSTYYADSVKGRFTISRDNAKNTVYLQMNRLKPEDTAVYYCAARRRYGRYRGAYDYWGQGTRVTVSS”, for which the “polyreactivity (PSR sort gate)” value is “high polyreactivity”.
Regarding “QVQLVESGGGLVQAGGSLRLSCAASGRTFAWNAMGWYRQAPRKERELVARIRSSGSTYYADSVKGRFTISRDNAKNTVYLQMNSLKPVDTAVYFCAADIRFWYGYYYWGQGTQVTVSS”, the “polyreactivity (PSR sort gate)” value was “high polyreactivity”.
Take “QVQLVESGGGLVQAGGSLRLSCAASGSTVSDNAMGWYRQAPGKERELVAAINWGGSNTYYADSVKGRFTISRDNAKNTVYLQMNSLKPEDTAVYYFNADIPRRTNRHYLYDYWGQGTQVTVSS”: the “polyreactivity (PSR sort gate)” value is on record as “low polyreactivity”.
The value for “QVQLVESGGGLVQAGGSLRLSCAASGFTLYYYAMGWYRQAPGKERELVAAIRSGGRTYYADSVKGRFTISRDNAKNTVYLQMNSLKPEDTAVYYCAARYRVYRGSRGITDYGYWGQGTQVTVSS” was “high polyreactivity”; that for “QVQLVESGGGLVQAGGSLRLSCAASGSTFTKYAMGWYRQAPGQERELVAAITASGGNTYYADSVKGRFTISRDNAKNTVYLQMNSLKPEDTAVYSCAAVTGLFYHPFYKYNYWGQGTQVTVSS” was “high polyreactivity”; that for “QVQLVESGGGLVQAGGSLRLSCAASGSIFSGNTMGWYRQAPGKERELVAAISGRGSNTYYADSVKGRFTISRDNAKNTVYLQMNSLKPEDTAVYYCAAPWVVRRTAYDYWGQGTQVTVSS” was “high polyreactivity”.
Turning to “QVQLVESGGGLGQAGGSLRLSCAASGSIFYRYAMGWYRKAPGKERELVAAITRRGARTYYADSVKGRFTISRDNAKNTVYLQLNSLKPEDTAVYYCAATYYYWTGWRYVRGDYWGQGTQVTVSS”, the “polyreactivity (PSR sort gate)” value is given as “high polyreactivity”.
Then “QVQLQESGGGLEQAGGSLRLSCAASGYISDIGTMGWYRQAPGKEREFVATIVVGSTTNYADSVKGRFTISRDNAKNTVYLKPESGRYRGVLLRGWLLAVGKFTYWGQGTQETVSS”, with “low polyreactivity”; and “QVQLVESGGGLVHAGGSLRIICAASGRIFYIYAMGWYRQAPGKERELVAAITKSGGSTTHYADSVKGRFTISRDNAKNTVYLQMNSLKPEDTEVYYCAVDARYSRSKYGYWGHGTQVTVSS”, with “high polyreactivity”.
Turning to “QVQLVESGGGLVQAGGSLRLSCAASGYIFNKYVMGWYRQAPGKERELVAAISASGGSTYYADSVKGRFTISRDNAKNTVYLQMNSLKPEDTSVYYCAATLYRRMDYWGQGTQVTVSS”, the “polyreactivity (PSR sort gate)” value is “high polyreactivity”.
Then “QVQLVESGGGLVQAGGSLRLSCAASGFTFDSNAMGWYRQAPGKERELVAAISASGDSTYYADSVKGRFTISRDNAKNTVYLQMNSLKPEDTAVYYCAADRFYGGWRFDHWGQGTQVTVSS”, with “low polyreactivity”.
Then “QVQLVESGGGLVQAGGSLRLSCAASGSIFTKYAMGWYRQAPGKERELVAAISWSGVSTYYADSVKGRFTISRDNAKHTVYLQMNSLKPEDTAVYYCNTRRYRSYGTTRYGYWGQGTQLTVSS”, with “high polyreactivity”.
As to “QVQLVESGGVLVQAVGSLRLSCAASGRIFYPYVMGWYRPAPGKERELVASITSGGGTYYADSVKGRFTISRDNAKNTVYLQMNSLKPEDTAGYYCNALAIWSEDWDHWISYADDYSGQGTQVTVSS”, the “polyreactivity (PSR sort gate)” value is listed as “low polyreactivity”.
The value for “QVQLVESGGGLVQAGGSLRLSCAASISSINAMGWYRQAPAKEREVVAASRWSGSSTYYADSVKGRFTISRDNAKNTVYLQMNSLKPEDTAGYYCAADTTTGDRGFDYWGQGTQVTVSS” was “high polyreactivity”; that for “QVQLVESGGGLVQAGGSLRLSCAASGFIFETNAMGWYRQAPGKERELVAAISSRGGSTYYADSVKGRFTISRDNAKNTVYLQMNSLKPEDTAVYYCAAKLVVSYGQEYDYWGQGTHVTVSS” was “low polyreactivity”; that for “QVQLVESGGGLVQAGGSLRLSCAASGSTIYFNGMGWYRQAPGKERELVAAITSGGSTDYADSVKGRFTISRDNAKNTVYLQMNSLKPEDTAVYYCAADHYGRYDYWGQGTQVTVSS” was “low polyreactivity”.
Take “QVQLVESGGGLVQAGGSRRLSCAASGRTFQYYAMGCYRQAPGKERELVASITYNGDITYYADSVKGRFTISRDNAKNTVYLQMNSLKPEDTAVYYCAATKFSDFGYQAVIGYGYWGQGTQVTVSS”: the “polyreactivity (PSR sort gate)” value is “low polyreactivity”.
